# Reference: patent US20220332804A1 (CSL INNOVATION, published 2022)
# T1: human C2 F689A (human, UniProt P06681 21-752)
# T1 sequence: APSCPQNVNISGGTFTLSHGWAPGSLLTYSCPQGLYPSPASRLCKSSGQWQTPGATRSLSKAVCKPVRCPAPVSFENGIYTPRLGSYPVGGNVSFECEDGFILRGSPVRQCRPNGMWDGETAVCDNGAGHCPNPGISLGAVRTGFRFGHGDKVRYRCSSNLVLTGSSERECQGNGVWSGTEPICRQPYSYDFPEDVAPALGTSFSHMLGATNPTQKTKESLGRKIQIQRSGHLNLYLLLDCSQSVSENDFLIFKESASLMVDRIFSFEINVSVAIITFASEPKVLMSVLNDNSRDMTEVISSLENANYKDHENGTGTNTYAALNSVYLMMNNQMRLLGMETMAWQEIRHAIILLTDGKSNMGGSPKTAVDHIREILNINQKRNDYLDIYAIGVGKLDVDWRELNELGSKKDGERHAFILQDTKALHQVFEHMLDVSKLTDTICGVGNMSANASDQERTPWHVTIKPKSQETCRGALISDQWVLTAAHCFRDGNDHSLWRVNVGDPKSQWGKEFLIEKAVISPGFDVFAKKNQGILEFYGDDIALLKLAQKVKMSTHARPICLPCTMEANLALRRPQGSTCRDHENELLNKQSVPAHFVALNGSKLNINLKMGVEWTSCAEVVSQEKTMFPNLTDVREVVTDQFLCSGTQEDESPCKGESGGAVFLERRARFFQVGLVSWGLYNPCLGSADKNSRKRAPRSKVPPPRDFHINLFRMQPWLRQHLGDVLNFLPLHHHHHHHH
# T2: human C2 F437A (human, UniProt P06681 21-752)
# T2 sequence: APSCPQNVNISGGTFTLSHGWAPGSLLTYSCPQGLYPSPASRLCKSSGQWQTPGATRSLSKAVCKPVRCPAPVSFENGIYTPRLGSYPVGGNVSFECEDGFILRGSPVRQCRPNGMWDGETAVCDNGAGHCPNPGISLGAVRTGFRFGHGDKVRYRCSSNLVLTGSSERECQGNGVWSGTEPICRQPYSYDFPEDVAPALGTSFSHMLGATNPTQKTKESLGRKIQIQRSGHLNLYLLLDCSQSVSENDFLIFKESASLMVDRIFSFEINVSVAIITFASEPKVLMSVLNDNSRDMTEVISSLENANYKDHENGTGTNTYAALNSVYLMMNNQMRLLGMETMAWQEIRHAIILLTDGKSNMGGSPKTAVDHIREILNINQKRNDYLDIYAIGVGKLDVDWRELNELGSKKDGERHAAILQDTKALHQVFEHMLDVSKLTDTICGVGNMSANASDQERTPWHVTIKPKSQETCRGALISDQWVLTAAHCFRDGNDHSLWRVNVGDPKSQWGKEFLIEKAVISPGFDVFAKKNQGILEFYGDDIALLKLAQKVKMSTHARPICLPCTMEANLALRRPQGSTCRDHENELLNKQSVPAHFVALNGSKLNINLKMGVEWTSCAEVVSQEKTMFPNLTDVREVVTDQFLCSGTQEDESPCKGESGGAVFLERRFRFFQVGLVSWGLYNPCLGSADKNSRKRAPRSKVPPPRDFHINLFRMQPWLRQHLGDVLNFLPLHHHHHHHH
# T3: human C2 S456A (human, UniProt P06681 21-752)
# T3 sequence: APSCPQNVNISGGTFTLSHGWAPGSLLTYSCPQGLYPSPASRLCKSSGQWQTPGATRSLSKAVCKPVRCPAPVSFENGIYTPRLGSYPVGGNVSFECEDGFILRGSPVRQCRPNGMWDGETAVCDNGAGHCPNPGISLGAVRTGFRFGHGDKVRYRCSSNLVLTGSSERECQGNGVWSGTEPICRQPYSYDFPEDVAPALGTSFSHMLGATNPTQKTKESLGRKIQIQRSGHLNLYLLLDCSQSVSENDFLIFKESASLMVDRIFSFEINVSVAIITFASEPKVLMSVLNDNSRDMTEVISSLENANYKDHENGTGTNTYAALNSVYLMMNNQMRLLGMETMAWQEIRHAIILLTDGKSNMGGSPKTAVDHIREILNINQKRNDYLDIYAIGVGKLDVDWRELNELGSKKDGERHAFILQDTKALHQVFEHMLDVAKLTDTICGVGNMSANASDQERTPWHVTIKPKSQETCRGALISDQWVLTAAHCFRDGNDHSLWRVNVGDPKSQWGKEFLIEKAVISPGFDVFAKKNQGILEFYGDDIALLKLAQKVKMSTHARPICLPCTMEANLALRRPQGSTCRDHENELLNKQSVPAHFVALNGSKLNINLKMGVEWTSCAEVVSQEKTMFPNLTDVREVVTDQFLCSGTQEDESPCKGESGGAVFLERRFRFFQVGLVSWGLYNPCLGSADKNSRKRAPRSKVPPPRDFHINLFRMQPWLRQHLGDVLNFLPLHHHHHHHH
# T4: human C2 E686A (human, UniProt P06681 21-752)
# T4 sequence: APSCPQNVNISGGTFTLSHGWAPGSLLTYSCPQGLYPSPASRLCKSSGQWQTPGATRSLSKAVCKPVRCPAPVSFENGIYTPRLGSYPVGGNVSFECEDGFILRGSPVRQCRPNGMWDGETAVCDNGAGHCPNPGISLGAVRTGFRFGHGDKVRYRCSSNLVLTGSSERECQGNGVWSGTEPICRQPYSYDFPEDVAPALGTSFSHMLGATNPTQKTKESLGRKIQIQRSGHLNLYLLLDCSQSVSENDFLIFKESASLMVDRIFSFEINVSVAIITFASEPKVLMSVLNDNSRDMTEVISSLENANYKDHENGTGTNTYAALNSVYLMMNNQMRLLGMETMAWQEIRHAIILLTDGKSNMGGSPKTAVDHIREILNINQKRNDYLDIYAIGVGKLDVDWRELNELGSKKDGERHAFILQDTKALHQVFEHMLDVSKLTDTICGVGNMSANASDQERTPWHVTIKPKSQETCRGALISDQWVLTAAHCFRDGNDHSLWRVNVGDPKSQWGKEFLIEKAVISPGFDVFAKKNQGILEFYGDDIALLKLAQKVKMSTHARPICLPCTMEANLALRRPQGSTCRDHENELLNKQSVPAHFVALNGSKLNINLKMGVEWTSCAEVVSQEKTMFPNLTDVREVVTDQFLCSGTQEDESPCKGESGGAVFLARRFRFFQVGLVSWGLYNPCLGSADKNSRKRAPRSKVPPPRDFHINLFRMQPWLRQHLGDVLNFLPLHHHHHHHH
# Assays:
# Experiment in all cases: SPR; KD relative to WT C2;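 further: biacore SPR at 37 °C, anti-C2 mAbs captured on an anti-human IgG chip, alanine or serine C2 surface mutants tested, KD from 1:1 fit compared with wild-type C2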
# human C2 F689A = target: T1, human C2 F689A
# human C2 F437A = target: T2, human C2 F437A
# human C2 S456A = target: T3, human C2 S456A
# human C2 E686A = target: T4, human C2 E686A
binder,measurement,setting,value
"RF16-214 (antibody, V domains shown) VH: EVQLLESGGGLVQPGGSLRLSCAASGFTFSWYQMMWVRQAPGKGLEWVSRIYPSGGGTAYADSVKGRFTISRDNSKNTLYLQMNSLRAEDTAVYYCARDAGYGDNWGQGTLVTVSS VL: QSALTQPPSVSVSPGQTASITCSGDKLGEKYASWYQQKAGQSPVMVIYQDRKRPSGIPERFSGSNSGNTATLTISGTQAMDEADYYCQAWDTRAVVFGGGTKLTVLG",Fold diff,human C2 F689A,1 fold
same,Fold diff,human C2 F437A,12 fold
same,Fold diff,human C2 S456A,5 fold
same,Fold diff,human C2 E686A,4 fold
